Results on one molecule are retold here after patent US20200147199A1.

The target of this assay is ZIKV E Domain III ([..]), polyhistidine-AviTag, produced in HEK-293-6E cells (ZIKV). In words: ELISA, biotinylated Z004 on coated ZEDIII, streptavidin-HRP. The conditions noted are these: remark: other sources report otherwise. For orientation: In an ELISA, binding on a coated surface is turned into a signal by an enzyme label.

B1: Z004 (MEX18_89) (antibody, V domains shown)
VH: EVQLLESGGGLVQPGGSLRLTCATSGFTFRDYAMSWVRQAPGKGLEWVSSYSGIDDSTYYADSVKGRFTISRDNSKSTLSLHMNSLRAEDSALYFCAKDRGPRGVGELFDSWGQGTLVTVSS
VL: DIQMTQSPSTLSASVGDRVTITCRASQSISKWLAWYQQKPGKAPKLLIYTTSTLKSGVPSRFSGSGSGTEFTLTISSLQPDDFATYYCQHFYSVPWTFGQGTKVEIK
What is called EC50 is the midpoint of the concentration-response curve. Consider B1, for which the EC50 is 0.16 µg/mL.
